For one assay, the system named is CD8+ T cells. The assay can be described thus: CD8+ T cells in mobilized peripheral blood, flow cytometry (Example 3). It is filed as in vivo, mice (WT B6D2F1/J). Conditions: group of three mice. The method, then: It is known that donor CD8^+ T cells are mainly responsible for GVHD in HSCT, and G-CSF is considered a toxic mobilizer as it also induces GVHD.
In FIG. 3, WT B6D2F1/J mice were treated with FLT3L or G-CSF for 10 or 5 days, respectively, followed by a one-hour Plerixafor treatment. PBS served as a control. Peripheral blood cells were assayed by flow cytometry to examine percentages of CD8^+ T cells ([…]) in total white blood cells. Data were summarized from a group of three mice.
(In general: In flow cytometry, cells or beads pass a laser one at a time.)

In assay [1] the test system is HSCs (Lin-Sca-1+c-Kit+, LSK cells). Briefly: LSK cell mobilization into peripheral blood, flow cytometry (Example 6). Format: in vivo, C57BL/6 mice. The method, then: (§1) C57BL/6 mice were injected intraperitoneally (i.p.) either (i) with recombinant human FLT3L (Celldex Therapeutics or Miltenyi Biotec) ([…]) for 10 consecutive days or (ii) with G-CSF (Amgen) ([…]) for 5 consecutive days. The capacity of human FLT3L to bind murine FLT3L receptors and Plerixafor to block murine Cxcr4 receptor was previously reported. (See, e.g., Lyman et al., 1994; Brawel et al., 1996; Gerlach et al., 2001; Broxmeyer et al., 2005). Twelve hours after the last dose of either FLT3L or G-CSF, the mice were injected i.p. with either PBS or Plerixafor (AMD3100, Sigma) (5 mg/kg). The mice were euthanized one hour later.
As described by Ferraro et al., 2011, peripheral blood was collected retro-orbitally while the mice were under deep anesthesia. Briefly, the mice were […] by an i.p. injection with 100 μL of a mixture of ketamine (54.3 mg/mL) and xylazine (9.1 mg/mL). Blood was collected from the retro-orbital venous plexus through a microcapillary heparinized tube. The mice were then euthanized while still deeply anesthetized. RBCs were depleted by RBC lysis buffer. The remaining cells were subjected to flow cytometric analysis or transplantation.
The mAbs reactive with murine cell antigens were purchased from BD Biosciences or eBioscience. Cell preparation and analysis were performed as described by Yu et al., 2010. […]

The subject of assay [2] is peripheral blood stem cells. Conditions: cited from earlier work.
Assay [3] relates to mice syngeneically infused. Conditions: cited from earlier work.
For assay [4], the system named is Lin-c-kit+Sca-1+ HSCs and Lin-c-kit+Sca-1- progenitor cells. Briefly: Mobilization of HSCs and committed progenitors into peripheral blood, flow cytometry (Example 1). Format: in vivo, mice (WT B6D2F1/J). The text has this:
Since HSCs are important for long-term reconstitution and progenitor cells are critical for short-term rapid reconstitution in transplantation, whether a combination of FLT3L and Plerixafor can mobilize both types of cells was investigated. In mice, Lin^−c-kit^+Sca-1^+ cells are enriched HSCs and Lin^−c-kit^+Sca-1^− cells are more committed progenitor cells. […] Furthermore, the mobilization effect of the FLT3L and Plerixafor combination was much stronger than the G-CSF and Plerixafor combination, the strongest mobilizer currently used clinically (5.9% vs. 2%, 10.3% vs. 1%, n=3, p<0.01, respectively). The flow results were validated by another method, stem cell colony formation assay.
In FIG. 1, WT B6D2F1/J mice were treated with FLT3L or G-CSF for 10 or 5 days, respectively, followed by a one-hour Plerixafor treatment. PBS served as a control. On the last day of the treatment, mice were sacrificed and peripheral blood cells were subjected to flow cytometry to determine percentages (among total WBC) of stem-cell enriched (Lin^−CD117^+Sca-1^+) (FIG. 1A) or more committed precursor cells ([…]) (FIG. 1B).

The subject of a further assay is NK cells (NK1.1+CD3-). The assay can be described thus: NK cell expansion in peripheral blood and spleen, flow cytometry (Example 2). Format: in vivo, mice (WT C57BL/6 or B6D2F1/J). From the text: […] PBS; gated on total white blood cells).
In FIG. […] PBS served as a control. Peripheral blood cells were counted using trypan blue and assayed by flow cytometry to examine percentages of NK cells (NK1.1^+CD3^−).

Assay [5] deals with lethally irradiated syngeneic mouse model. Briefly: Survival of lethally irradiated syngeneic mice given mobilized peripheral blood cells (Example 5). Format: in vivo, mice (C57BL/6). Particulars: 0.2 million mobilized PB cells per lethally irradiated recipient. The method, then: Peripheral blood (PB) mobilized by FLT3L and Plerixafor prolongs mouse survival in a lethally irradiated syngeneic mouse model and a fully mismatched acute GVHD model. To test whether the mobilized stem cells and other immune cells can improve transplantation, mobilized cells were administered to lethally irradiated (IR) syngeneic mice at the dose of 0.2 million PB cells for each recipient mouse.

The subject of assay [6] is fully mismatched acute GVHD model. The assay can be described thus: Survival in fully mismatched acute GVHD model given mobilized peripheral blood cells (Example 5). It is filed as in vivo, mice (C57BL/6 to BALB/c). Particulars: 0.8 million mobilized cells per mouse.
Assay [7] has as its system NK cells, Tregs, DCs, monocytes, neutrophils. Briefly: Immune cell subsets in mobilized peripheral blood, flow cytometry (Example 6). Format: in vivo, C57BL/6 mice. How it is done:
as §1
The mAbs reactive with murine cell antigens were purchased from BD Biosciences or eBioscience. Cell preparation and analysis were performed as described by Yu et al., 2010. The immune subsets were gated as CD3^−NK1.1^+ for natural killer (NK) cells, CD3^+CD25^+Foxp3^+ for regulatory T cells (Tregs), B220^−CD11c^+CD11b^− for conventional dendritic cells (cDCs), and CD11b^−CD11c^lowPDCA1^+SiglecH^+ for plasmacytoid DCs (pDCs).
In FIG. 12, the constitution of immune cell subsets in mobilized peripheral blood was determined by flow cytometric analysis with corresponding antibodies (B cell: CD3^−CD19^+, T cell: CD3^+NK1.1^−; NK cell: CD3^−NK1.1^+; Neutrophil: Gr1^highCD11b^+; Monocyte: Gr1^medCD11b^+; DC: CD11c^+). […]

Assay [8] concerns lethally irradiated C57BL/6 mice. The assay can be described thus: Syngeneic transplantation of mobilized grafts into lethally irradiated mice (Example 6). Format: in vivo. Conditions: 2×10^5 mobilized cells per recipient.
Description: For syngeneic transplantation, C57BL/6 mice were subjected to 9 Gy of irradiation delivered in 2 fractions separated by 4 hours using RS 2000 X-Ray Q2 Irradiator (Rad Source Technologies, Suwanee GP). Four hours later, each mouse was transplanted via the tail vein with 2×10^5 mobilized RBC-depleted peripheral blood cells from C57BL/6 mice. […] The lethally irradiated mice were housed in a sterile environment and baytril antibiotic was provided in the drinking water to prevent infection-caused mortality. After transplantation, mice were monitored daily and the phenotypes of the mice were recorded.
(§2) Irradiated mice without any cell infusion (IR Ctl) served as a control group. A total of 2×10^5 (A) or 8×10^5 (B) peripheral blood cells were transplanted for each recipient. Each group contains 5 to 8 mice. A log-rank test was used to compare survival curves.
Assay [9] deals with lethally irradiated BALB/c mice. The assay can be described thus: Allogeneic transplantation of mobilized grafts into lethally irradiated mice (Example 6). Format: in vivo, BALB/c mice (grafts from C57BL/6). Particulars: 8×10^5 mobilized cells per recipient.
Description: For allogeneic transplantation, each recipient BALB/c mouse was subjected to a lethal irradiation (delivered in 2 fractions separated by 4 hours using RS 2000 X-Ray Q2 Irradiator) and was then injected with 8×10^5 mobilized RBC depleted peripheral blood cells isolated from C57BL/6 mice. […] Considering the likely graft rejection and GVHD complication in the allogeneic model, a 4-fold higher number of cells (i.e., 8×10^5 donor cells isolated from C57BL/6 mice) were administered intravenously (i.v.) into each BALB/c recipient for allogeneic transplants. The lethally irradiated mice were housed in a sterile environment and baytril antibiotic was provided in the drinking water to prevent infection-caused mortality. After transplantation, mice were monitored daily and the phenotypes of the mice were recorded.
as §2
In FIG. 16, lethally irradiated BALB/c mice were transplanted with grafts from C57BL/6 mice that were mobilized by the indicated regimens. At four months post-transplantation, the surviving mice were sacrificed.

Like-named read-outs stand apart in the source and are kept apart here.

Consider `c1cc(CN2CCCNCCNCCCNCC2)ccc1CN1CCCNCCNCCCNCC1` [Plerixafor, reference compound], for which the “proportion of CD8+ T cells in total white blood cells” value in the assay with CD8+ T cells is reported as “moderately gave rise to a proportional increase”. The “number of LSK cells in blood compared with PBS-treated mice” value in [1] is “moderate increase”.

B1: G-CSF: Granulocyte colony stimulating factor (Amgen), routinely used to mobilize PBSC (protein, UniProt P09919 31-207, looked up)
Granulocyte …: TPLGPASSLPQSFLLKCLEQVRKIQGDGAALQEKLVSECATYKLCHPEELVLLGHSLGIPWAPLSSCPSQALQLAGCLSQLHSGLFLYQGLLQALEGISPELGPTLDTLQLDVADFATTIWQQMEELGMAPALQPTQGAMPAFASAFQRRAGGVLVASHLQSFLEVSYRVLRHLAQP
For B1, the “autologous transplant patients that respond poorly” value in assay [2] (G-CSF or G-CSF plus chemotherapy, varied depending on disease types and age) was 10-30%. Also, the “normal donors that mobilize stem cells poorly” value in [2] (in response to G-CSF) is recorded as 5-10%. Besides, the mice survived result in assay [3] (2.5×10^5 cells mobilized by G-CSF transplanted) is recorded as “around 17%”; in assay [3] (syngeneically infused with 1×10^6 peripheral nucleated cells mobilized by G-CSF), “about 90%”.

B2: FLT3L: recombinant human FLT3L (Celldex Therapeutics or Miltenyi Biotec), stem cell-specific growth factor (protein, UniProt P49771 27-235, looked up)
Fms-related tyrosine kinase 3 …: TQDCSFQHSPISSDFAVKIRELSDYLLQDYPVTVASNLQDEELCGGLWRLVLAQRWMERLKTVAGSKMQGLLERVNTEIHFVTKCAFQPPPSCLRFVQTNISRLLQETSEQLVALKPWITRQNFSRCLELQCQPDSSTLPPPWSPRPLEATAPTAPQPPLLLLLLLPVGLLLLAAAWCLHWQRTRRRTPRPGEQVPPVPSPQDLLLVEH
On to B2, for which the “effect on progenitor cells and HSCs” value in [4] (FLT3L administration for 5 days) is “increased only Lin-c-kit+Sca-1-progenitor cells but not HSCs”. In assay [4] (peripheral blood, FLT3L administration of 7 days and 10 days, printed as 0.13% vs. 1.8%, n=3, p<0.01), the “Lin-c-kit+Sca-1+ HSC, percentage among total WBC” value came to 1.8%. Further, the “Lin-c-kit+Sca-1- progenitor cells, percentage among total WBC” value in assay [4] (peripheral blood, FLT3L administration of 7 days and 10 days, printed as 0.47% vs. 1.8%, n=3, p<0.01) is given as 1.8%. In the assay with NK cells (NK1.1+CD3-) (FLT3L alone for 14 days), the “NK cells in peripheral blood and spleen” value was “dramatically increased”. Moreover, the “NK cell content compared with the combination of GCSF and Plerixafor” value with NK cells (NK1.1+CD3-) (gated on total white blood cells) is “much higher NK cell content”. For the same molecule, the “proportion of CD8+ T cells in total white blood cells” value in the assay with CD8+ T cells is reported as “dramatically decreased”. For the same molecule, the protection from death entry in assay [5] is “fully protect mice from death”. Moreover, the “survival rate two months (day 60) after transplantation” value in assay [6] is reported as 60%. The “number of LSK cells in blood compared with PBS-treated mice” value in assay [1] is given as “significantly more LSK cells”. In addition, the “NK (CD3-NK1.1+) cell percentages” value in [7] is “significantly increased”. Besides, in assay [8], the “mice alive four months after transplantation” value is listed as “approximately 70%” and the “survival rate at day 21” value is reported as 100%. Further, the “mice surviving to 4 months post-transplantation” value in assay [9] is given as 66%.

Source of the values: patent US20180207202A1, “METHODS FOR MOBILIZING HEMATOPOIETIC STEM CELLS” (Ohio State Innovation Foundation, priority 2013, published 2018).
